Data: patent publication US7084111 (UNIVERSITY OF FLORIDA RESEARCH FOUNDATION, dated 2006)
Bridges are numbered along the chain shown (N, C = ends). Where no end group is shown, it is not given here. [ ]: non-standard residue; d: D form. Nle = CCCC[C@H](N)C(=O)O; Dap = NC[C@H](N)C(=O)O

B1: SEQ ID NO:32 (Tyr-c[Asp-His-(pI)DPhe-Arg-Trp-Asn-Ala-Phe-Dpr]-Tyr) (peptide)
peptide: YDHXRWNAFXY
modifications: Asp-Dpr side chain lactam bridge; Dpr; (pI)DPhe; C-terminal amide (amide resin)
B2: SEQ ID NO:36 (Tyr-c[Asp-His-DPhe-Pro-Trp-Asn-Ala-Phe-Dpr]-Tyr) (peptide)
peptide: YDHXPWNAFXY
modifications: Asp-Dpr side chain lactam bridge; Dpr; DPhe; C-terminal amide (amide resin)
B3: SEQ ID NO:25 (Tyr-c[Asp-His-Ala-Arg-Trp-Asn-Ala-Phe-Dpr]-Tyr) (peptide)
peptide: YDHARWNAF[Dap]Y-NH2
modifications: lactam 2-10; N-terminus assumed
SMILES: C[C@@H]1NC(=O)[C@H](CC(N)=O)NC(=O)[C@H](Cc2c[nH]c3ccccc23)NC(=O)[C@H](CCCNC(=N)N)NC(=O)[C@H](C)NC(=O)[C@H](Cc2c[nH]cn2)NC(=O)[C@@H](NC(=O)[C@@H](N)Cc2ccc(O)cc2)CC(=O)NC[C@@H](C(=O)N[C@@H](Cc2ccc(O)cc2)C(N)=O)NC(=O)[C@H](Cc2ccccc2)NC1=O
B4: SEQ ID NO:18 (Ac-Ser-Tyr-Ser-Nle-Glu-His-Arg-Phe-DPhe-Gly-Lys-Pro-Val) (peptide)
peptide: Ac-SYS[Nle]EHRF[dF]GKPV-NH2
SMILES: CCCC[C@H](NC(=O)[C@H](CO)NC(=O)[C@H](Cc1ccc(O)cc1)NC(=O)[C@H](CO)NC(C)=O)C(=O)N[C@@H](CCC(=O)O)C(=O)N[C@@H](Cc1c[nH]cn1)C(=O)N[C@@H](CCCNC(=N)N)C(=O)N[C@@H](Cc1ccccc1)C(=O)N[C@H](Cc1ccccc1)C(=O)NCC(=O)N[C@@H](CCCCN)C(=O)N1CCC[C@H]1C(=O)N[C@H](C(N)=O)C(C)C
B5: SEQ ID NO:21 (Ac-Nle-c[Asp-His-DArg-Phe-Phe-Lys]) (peptide)
peptide: Ac-[Nle]DH[dR]FFK-NH2
modifications: lactam 2-7
B6: SEQ ID NO:24 (Tyr-c[Asp-Ala-DPhe-Arg-Trp-Asn-Ala-Phe-Dpr]-Tyr) (peptide)
peptide: YDAXRWNAFXY
modifications: Asp-Dpr side chain lactam bridge; Dpr; DPhe; C-terminal amide (amide resin)
B7: SEQ ID NO:28 (Tyr-c[Asp-Pro-DPhe-Arg-Trp-Asn-Ala-Phe-Dpr]-Tyr) (peptide)
peptide: YDPXRWNAFXY
modifications: Asp-Dpr side chain lactam bridge; Dpr; DPhe; C-terminal amide (amide resin)
B8: SEQ ID NO:35 (Tyr-c[Asp-His-DBip-Arg-Trp-Asn-Ala-Phe-Dpr]-Tyr) (peptide)
peptide: YDHXRWNAFXY
modifications: Asp-Dpr side chain lactam bridge; Dpr; DBip; C-terminal amide (amide resin)
B9: SEQ ID NO:34 (Tyr-c[Asp-His-DNal(1′)-Arg-Trp-Asn-Ala-Phe-Dpr]-Tyr) (peptide)
peptide: YDHXRWNAFXY
modifications: Asp-Dpr side chain lactam bridge; Dpr; DNal(1′); C-terminal amide (amide resin)
B10: SEQ ID NO:7 (Tyr-c[Asp-DPhe-Arg-Trp-Asn-Ala-Phe-Dpr]-Tyr-NH2) (peptide)
peptide: YD[dF]RWNAF[Dap]Y-NH2
modifications: lactam 2-9
B11: SEQ ID NO:37 (Tyr-c[Asp-His-DPhe-Lys-Trp-Asn-Ala-Phe-Dpr]-Tyr) (peptide)
peptide: YDHXKWNAFXY
modifications: Asp-Dpr side chain lactam bridge; Dpr; DPhe; C-terminal amide (amide resin)
B12: SEQ ID NO:38 (Tyr-c[Asp-His-DPhe-Arg-Pro-Asn-Ala-Phe-Dpr]-Tyr) (peptide)
peptide: YDHXRPNAFXY
modifications: Asp-Dpr side chain lactam bridge; Dpr; DPhe; C-terminal amide (amide resin)

Biological target: mouse melanocortin-1 receptor (mouse, UniProt Q01727 1-315)
Assay: cell-based or functional assay

Sequence of mouse melanocortin-1 receptor (Q01727 whole entry): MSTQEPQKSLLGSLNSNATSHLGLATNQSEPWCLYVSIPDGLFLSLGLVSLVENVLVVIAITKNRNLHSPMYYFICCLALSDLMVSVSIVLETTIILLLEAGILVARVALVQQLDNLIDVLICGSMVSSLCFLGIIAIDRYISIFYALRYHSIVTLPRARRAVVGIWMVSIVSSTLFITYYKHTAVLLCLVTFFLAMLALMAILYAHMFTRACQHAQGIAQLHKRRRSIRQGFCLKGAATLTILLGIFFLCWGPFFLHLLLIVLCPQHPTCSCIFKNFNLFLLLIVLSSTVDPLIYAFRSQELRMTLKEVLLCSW

Row | Binder | EC50 (agonist) [nM]
1 | B1 | 0.3
2 | B2 | 990
3 | B3 | 14000
4 | B4 | 3630
5 | B5 | > 100000
6 | B6 | 7.2
7 | B7 | 22.1
8 | B8 | 3.87
9 | B9 | 9.2
10 | B10 | 4850
11 | B11 | 680
12 | B12 | 1000

Biological target: mouse melanocortin-3 receptor (mouse, UniProt P33033 1-323)
Assay: cell-based or functional assay

Sequence of mouse melanocortin-3 receptor (P33033 whole entry): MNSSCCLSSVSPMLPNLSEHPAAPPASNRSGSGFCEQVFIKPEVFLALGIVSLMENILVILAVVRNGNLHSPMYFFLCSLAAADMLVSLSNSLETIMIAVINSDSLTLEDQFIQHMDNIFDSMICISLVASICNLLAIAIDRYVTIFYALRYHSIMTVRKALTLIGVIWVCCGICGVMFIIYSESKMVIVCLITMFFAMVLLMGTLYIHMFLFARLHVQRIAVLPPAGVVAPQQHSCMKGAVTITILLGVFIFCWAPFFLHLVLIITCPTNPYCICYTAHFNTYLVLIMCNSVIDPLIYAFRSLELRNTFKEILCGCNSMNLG

Row | Binder | pA2 (antagonist) | EC50 (agonist) [µM] | EC50 (agonist; Partial agonist) [µM] | pA2 (antagonist; Partial agonist)
13 | B1 | 8.9 | – | – | –
14 | B2 | – | 17.3 | – | –
15 | B3 | – | – | 30.3 | –
16 | B4 | – | > 100 | – | –
17 | B5 | – | > 100 | – | –
18 | B6 | – | 0.029 | – | –
19 | B7 | – | – | – | 7.2
20 | B8 | – | 0.033 | – | –
21 | B9 | – | 0.32 | – | –
22 | B11 | – | 30.8 | – | –
23 | B12 | – | 39.2 | – | –

Biological target: mouse melanocortin-4 receptor (mouse, UniProt P56450 1-332)
Assay: cell-based or functional assay

Sequence of mouse melanocortin-4 receptor (P56450 whole entry): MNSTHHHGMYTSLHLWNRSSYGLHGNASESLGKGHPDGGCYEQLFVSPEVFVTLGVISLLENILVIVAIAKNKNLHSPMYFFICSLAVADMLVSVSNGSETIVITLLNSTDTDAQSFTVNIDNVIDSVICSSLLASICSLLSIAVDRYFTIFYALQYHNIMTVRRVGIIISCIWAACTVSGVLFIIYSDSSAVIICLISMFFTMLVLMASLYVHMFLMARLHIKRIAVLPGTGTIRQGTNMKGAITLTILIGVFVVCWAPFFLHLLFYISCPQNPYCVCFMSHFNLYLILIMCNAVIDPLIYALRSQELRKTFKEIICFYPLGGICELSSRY

Row | Binder | pA2 (antagonist; Partial agonist) | EC50 (agonist) [nM]
24 | B1 | 9.4 | –
25 | B2 | – | 4300
26 | B3 | – | 14700
27 | B4 | – | > 100000
28 | B5 | – | > 100000
29 | B6 | – | 0.36
30 | B7 | – | 0.63
31 | B8 | – | 0.57
32 | B9 | – | 0.57
33 | B10 | – | 450
34 | B11 | – | 8600
35 | B12 | – | 7200

Biological target: mouse melanocortin-5 receptor (mouse, UniProt P41149 1-325)
Assay: cell-based or functional assay

Sequence of mouse melanocortin-5 receptor (P41149 whole entry): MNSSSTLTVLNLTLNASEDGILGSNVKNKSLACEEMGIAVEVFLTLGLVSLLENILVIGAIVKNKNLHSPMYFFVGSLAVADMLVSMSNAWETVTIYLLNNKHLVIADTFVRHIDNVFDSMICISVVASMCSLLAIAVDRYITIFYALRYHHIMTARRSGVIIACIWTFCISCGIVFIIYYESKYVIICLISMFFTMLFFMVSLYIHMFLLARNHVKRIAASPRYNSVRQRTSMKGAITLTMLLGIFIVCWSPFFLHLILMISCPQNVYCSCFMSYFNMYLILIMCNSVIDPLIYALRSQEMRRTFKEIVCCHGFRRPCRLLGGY

Row | Binder | EC50 (agonist) [nM]
36 | B1 | 2.33
37 | B2 | 3200
38 | B3 | 690
39 | B5 | > 100000
40 | B6 | 0.46
41 | B7 | 7.16
42 | B8 | 5.27
43 | B9 | 3.13
44 | B10 | 124
45 | B11 | 800
46 | B12 | 700
